The nature of one data set: physchem. Conditions: pH 7.4.
A short description of data set [1]: Plasma pharmacokinetics of EC0565 after a single intravenous or subcutaneous dose. Conditions: for Tmax: sc. As for the experimental part:
The bioavailability of EC0565 after subcutaneous injection was measured. Female Lewis rats with rounded tip jugular vein catheters (Harlan) were fed regular rodent diet. The treated animals were given a single intravenous or subcutaneous dose of EC0565 at 2 μmmol/kg. […] For subcutaneous administration FIG. 18b, whole blood samples (300 μl) were collected from the animals at 1 min, 10 min, 30 min, 1 h, 2 h, 3 h, 4 h, 8 h, and 12 h post injection. The blood samples were placed into anti-coagulant tubes containing 1.7 mg/mL of K3-EDTA and 0.35 mg/mL of N-maleoyl-beta-alanine (0.35 mg/mL). Plasma samples were obtained by centrifugation for 3 min at ˜2,000 g and stored at −80° C. The amount of EC0565 and its released base drug (everolimus) were determined by HPLC using the EC0565 injection solution as the standard.

For data set [2] the following is noted: rats; cited from earlier work.
The test system of data set [3] is Proliferating Cell Nuclear Antigen (PCNA). Nature of the data set: Western blot of PCNA in synchronized RAW264.7 cells. The data set is classed as cell-based, murine. The note with it: 1-1000 nM; EC0565 2 h treatment, 48-h chase; everolimus 48 h. A general note: In western blotting, separated proteins are transferred to a membrane and probed.
Method: To study anti-proliferative effect of EC0565, FR-positive murine macrophage-like RAW264.7 cells (serum deprived for 36 h for synchonization) were given a 2 h treatment of EC0565 (1, 10, 100, and 1000 nM) without or with 1000× excess of EC17 (as a folate competitor) followed by a 48-h chase in drug-free medium. For comparison, the cells were also treated for 48 h with everolimus (1, 10, 100, and 1000 nM). […] Western blot analysis was carried out on whole cell lysates using a monoclonal antibody specific for PCNA (PC10, Cell Signaling, Danvers, Mass.). After incubation with a peroxidase-conjugated secondary antibody, the signals were visualized using SuperSignal West Pico Chemiluminescent Substrate system (ThermoScientific, Waltham, Mass.) following the manufacturer's instructions. The images were acquired using a G:BOX Chemi HR 16 gel imaging system (Syngene, Frederick, Md.).
The conditions of data set [4]: cited from earlier work.
[5] abbreviates: female, Lewis, rat, in vivo, 2 μmmol/kg.

`CO[C@H]1C[C@@H]2CC[C@@H](C)[C@@](O)(O2)C(=O)C(=O)N2CCCC[C@H]2C(=O)O[C@H]([C@H](C)C[C@@H]2CC[C@@H](OCCOC(=O)OCCSSC[C@H](NC(=O)[C@H](CCC(=O)NC[C@H](O)[C@@H](O)[C@H](O)[C@H](O)CO)NC(=O)[C@H](CCC(=O)O)NC(=O)[C@H](CCC(=O)NC[C@H](O)[C@@H](O)[C@H](O)[C@H](O)CO)NC(=O)[C@H](CCC(=O)O)NC(=O)[C@H](CCC(=O)NC[C@H](O)[C@@H](O)[C@H](O)[C@H](O)CO)NC(=O)CC[C@H](NC(=O)c3ccc(NCc4cnc5nc(N)[nH]c(=O)c5n4)cc3)C(=O)O)C(=O)O)[C@H](OC)C2)CC(=O)[C@H](C)/C=C(\C)[C@@H](O)[C@@H](OC)C(=O)[C@H](C)C[C@H](C)/C=C/C=C/C=C/1C` [EC0565]: the solubility – broadly, the concentration that dissolves in the medium under given conditions – in “physchem” was over 1000 µM. Besides, the bioavailability in data set [1] (setting [5]) was about 128%. In data set [1] (setting [5]), the Tmax (in general, the time at which the peak concentration occurs) was about 1 h. Also, the “free drug (everolimus) exposure/release in plasma, based on AUC” value in data set [1] (single intravenous dose of EC0565 at 2 μmmol/kg) is on record as “approximately 18%”; in data set [1] (single subcutaneous dose of EC0565 at 2 μmmol/kg), about 17%.
Take `CO[C@H]1C[C@@H]2CC[C@@H](C)[C@@](O)(O2)C(=O)C(=O)N2CCCC[C@H]2C(=O)O[C@H]([C@H](C)C[C@@H]2CC[C@@H](OCCO)[C@H](OC)C2)CC(=O)[C@H](C)/C=C(\C)[C@@H](O)[C@@H](OC)C(=O)[C@H](C)C[C@H](C)/C=C/C=C/C=C/1C` [everolimus]: the oral bioavailability in data set [2] is listed as about 12%. The Tmax in data set [1] (female, Lewis, rat, in vivo) is recorded as about 1 h. Besides, the “effect on PCNA activities” value in data set [3] is “inhibited PCNA activities”. Further, the water solubility in data set [4] was 1 to 10 µM.

The values above are taken from patent publication US20130203680A1, “FOLATE CONJUGATES FOR TREATING INFLAMMATION OF THE EYE” (ENDOCYTE, INC., priority 2010, published 2013).
